According to patent publication EP1149909A1:

Molecular target: ClpA (E. coli) (UniProt P0ABH9)
Assay: cell-based or functional assay

Sequence of UniProt P0ABH9 (P0ABH9 whole entry): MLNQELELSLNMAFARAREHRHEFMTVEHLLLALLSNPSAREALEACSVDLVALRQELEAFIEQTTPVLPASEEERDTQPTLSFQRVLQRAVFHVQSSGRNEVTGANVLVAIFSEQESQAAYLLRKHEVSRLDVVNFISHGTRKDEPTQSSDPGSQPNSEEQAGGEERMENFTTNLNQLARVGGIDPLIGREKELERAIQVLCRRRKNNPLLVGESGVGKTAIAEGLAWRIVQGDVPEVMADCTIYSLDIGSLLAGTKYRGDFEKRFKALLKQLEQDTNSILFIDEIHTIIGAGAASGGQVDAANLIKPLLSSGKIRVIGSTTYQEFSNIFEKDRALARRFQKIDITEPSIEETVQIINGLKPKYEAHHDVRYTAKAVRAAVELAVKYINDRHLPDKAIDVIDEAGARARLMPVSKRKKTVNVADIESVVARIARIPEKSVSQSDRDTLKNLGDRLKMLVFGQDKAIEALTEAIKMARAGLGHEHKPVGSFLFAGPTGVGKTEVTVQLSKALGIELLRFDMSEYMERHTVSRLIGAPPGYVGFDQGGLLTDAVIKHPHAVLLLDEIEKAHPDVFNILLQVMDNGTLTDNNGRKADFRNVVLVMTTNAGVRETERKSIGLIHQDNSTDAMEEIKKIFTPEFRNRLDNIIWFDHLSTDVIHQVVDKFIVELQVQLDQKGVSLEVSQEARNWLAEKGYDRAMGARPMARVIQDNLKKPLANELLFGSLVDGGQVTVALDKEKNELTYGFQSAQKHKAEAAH

ClpS gave an MDH activity (reactivation of heat-aggregated malate dehydrogenase), rate and yield greater than 2 fold.
